Results reported in patent publication WO2014196658A1 (dated 2014).

What was measured:
[1] = biological target: T1, human aquaporin 4 (hAQP4) M23 isoform (human, UniProt P55087 1-323); assay: ELISA on plates coated with budded baculovirus expressing human AQP4 M23
[2] = biological target: T1, human aquaporin 4 (hAQP4) M23 isoform; assay: cell ELISA on live CHO cells expressing hAQP4 M23, 37 °C 1 h, 4-parameter logistic fit

T1 sequence (P55087 whole entry, canonical isoform): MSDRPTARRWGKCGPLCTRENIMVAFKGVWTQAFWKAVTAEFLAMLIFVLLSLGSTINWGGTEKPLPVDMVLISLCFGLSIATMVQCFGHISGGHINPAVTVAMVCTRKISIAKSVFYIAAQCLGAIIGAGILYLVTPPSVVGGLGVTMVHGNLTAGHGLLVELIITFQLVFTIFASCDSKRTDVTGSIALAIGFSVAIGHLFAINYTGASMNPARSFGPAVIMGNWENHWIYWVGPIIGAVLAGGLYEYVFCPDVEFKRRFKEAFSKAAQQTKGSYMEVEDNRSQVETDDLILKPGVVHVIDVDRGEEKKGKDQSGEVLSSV

Binder	EC50 [1] [nM]	EC50 [2] [nM]
anti-aquaporin 4 monoclonal antibody produced by hybridoma clone C9401 (antibody, V domains shown, also called C9401 antibody; original antibody (C9401)) VH: QVQLQQSGPELVKPGASVRISCKASGYTFTNYYIHWVKQRPGQGLEWIGWIYPGNVNTKKNEKFKGKATLTADKSSSTAYMQLSSLTSEDSAVYFCARGVPYAFWGQGTLVTVSA VL: DIVLTQSPASLAVSLGQRATISCRASKSVDSYGNSFMHWYQQKPGQPPKLLIYRASNLESGIPARFSGSGSRTDFTLTINPVEADDVATYYCQQSNEDPPTFGGGTKLEIKR	0.166	0.162
anti-aquaporin 4 monoclonal antibody produced by hybridoma clone D12092 (antibody, V domains shown, Mouse antibody from a hybridoma; also called D12092 antibody) VH: QVQLKESGPGLVAPSQSLSITCTVSGFSLTRYGVHWVRQPPGKGLEWLVVIWSDGSTTYNSALKSRLSISKDNSKSQVFLKMNSLQTDDTAIYYCARGPPFAYWGQGTLVTVST VL: DIVLTQSPASLAVSLGQRATISCRASKSVDSYGNSFMHWYQQKPGQPPKLLIYRASNLESGIPARFSGSGSRTDFTLTINPVEADAVATYYCQQSYEDPPTFGAGTKLEIKR	–	0.116
anti-aquaporin 4 monoclonal antibody produced by hybridoma clones D15107 and D15129 (same antibody) (antibody, V domains shown, Mouse antibody from hybridomas; They are therefore one molecule here, and the rows keep the printed label; also called D15107 (D15129); D15107/D15129) VH: QVQLKESGPGLVAPSQSLSITCTVSGFSLTSYGVHWVRQPPGKGLEWLGVIWAGRRTNYNSALMSRLSISKDNSKSQVFLKMNSLQTDDTAMYYCARGDGIFPYWGQGTLVTVSA VL: DIVLTQSPGSLAVSLGQRATISCRASESVDSYGNSFMHWYQQKSGQPPKLLIYRASNLESGIPARFSGSGSRTDFTLTINPVEADDVATYYCQQSNEDPFTFGSGTKLEIKR	–	0.15
